For eight molecules, EC50 (hNMUR1) buffer results are on record in patent publication US20240279278A1, “NMU RECEPTOR 2 AGONISTS” (Boehringer Ingelheim International GmbH, priority 2023, published 2024).

The chains are these.
T1: human neuromedin U receptor 1 (human, UniProt Q9HB89 24-426)
T1 sequence (looked up): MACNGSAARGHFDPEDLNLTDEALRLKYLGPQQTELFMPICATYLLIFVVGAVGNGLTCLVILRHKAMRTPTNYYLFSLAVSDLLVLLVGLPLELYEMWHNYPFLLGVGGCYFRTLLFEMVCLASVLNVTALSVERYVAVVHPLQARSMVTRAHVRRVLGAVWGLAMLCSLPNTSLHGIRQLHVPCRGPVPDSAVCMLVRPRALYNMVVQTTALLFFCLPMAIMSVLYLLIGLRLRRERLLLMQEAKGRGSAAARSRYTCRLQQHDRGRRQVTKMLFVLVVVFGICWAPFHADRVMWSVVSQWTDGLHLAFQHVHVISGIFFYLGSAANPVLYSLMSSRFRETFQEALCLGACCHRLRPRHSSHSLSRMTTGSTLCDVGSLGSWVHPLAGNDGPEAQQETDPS

B1: C20DA-gGlu3-Sar9-AEPipAc-Tyr-Phe-NMeLeu-Nle-Arg-Pro-Arg-Gly-NH2 (peptide)
peptide: EEEXXXXXXXXXXYFLXRPRG
HELM: PEPTIDE1{[O=C(O)CCCCCCCCCCCCCCCCCCC(=O)[*:2]].[gGlu].[gGlu].[gGlu].[Sar].[Sar].[Sar].[Sar].[Sar].[Sar].[Sar].[Sar].[Sar].[O=C(CN1CCN(CCN[*:1])CC1)[*:2]].Y.F.[meL].[Nle].R.P.R.G.[am]}$$$$V2.0
SMILES: CCCC[C@H](NC(=O)[C@H](CC(C)C)N(C)C(=O)[C@H](Cc1ccccc1)NC(=O)[C@H](Cc1ccc(O)cc1)NC(=O)CN1CCN(CCNC(=O)CN(C)C(=O)CN(C)C(=O)CN(C)C(=O)CN(C)C(=O)CN(C)C(=O)CN(C)C(=O)CN(C)C(=O)CN(C)C(=O)CN(C)C(=O)CC[C@H](NC(=O)CC[C@H](NC(=O)CC[C@H](NC(=O)CCCCCCCCCCCCCCCCCCC(=O)O)C(=O)O)C(=O)O)C(=O)O)CC1)C(=O)N[C@@H](CCCNC(=N)N)C(=O)N1CCC[C@H]1C(=O)N[C@@H](CCCNC(=N)N)C(=O)NCC(N)=O
B2: C18DA-gGlu3-Sar12-AEPipAc-Tyr-Phe-NMeLeu-Nle-Orn-Pro-Arg-Gly-NH2 (peptide)
peptide: EEEXXXXXXXXXXXXXYFLXXPRG
HELM: PEPTIDE1{[O=C(O)CCCCCCCCCCCCCCCCC(=O)[*:2]].[gGlu].[gGlu].[gGlu].[Sar].[Sar].[Sar].[Sar].[Sar].[Sar].[Sar].[Sar].[Sar].[Sar].[Sar].[Sar].[O=C(CN1CCN(CCN[*:1])CC1)[*:2]].Y.F.[meL].[Nle].[Orn].P.R.G.[am]}$$$$V2.0
SMILES: CCCC[C@H](NC(=O)[C@H](CC(C)C)N(C)C(=O)[C@H](Cc1ccccc1)NC(=O)[C@H](Cc1ccc(O)cc1)NC(=O)CN1CCN(CCNC(=O)CN(C)C(=O)CN(C)C(=O)CN(C)C(=O)CN(C)C(=O)CN(C)C(=O)CN(C)C(=O)CN(C)C(=O)CN(C)C(=O)CN(C)C(=O)CN(C)C(=O)CN(C)C(=O)CN(C)C(=O)CC[C@H](NC(=O)CC[C@H](NC(=O)CC[C@H](NC(=O)CCCCCCCCCCCCCCCCC(=O)O)C(=O)O)C(=O)O)C(=O)O)CC1)C(=O)N[C@@H](CCCN)C(=O)N1CCC[C@H]1C(=O)N[C@@H](CCCNC(=N)N)C(=O)NCC(N)=O
B3: C20DA-gGlu3-Sar12-AEPipAc-Tyr-Phe-NMeLeu-Nle-Dbu-Pro-Arg-Gly-NH2 (peptide)
peptide: EEEXXXXXXXXXXXXXYFLXXPRG
HELM: PEPTIDE1{[O=C(O)CCCCCCCCCCCCCCCCCCC(=O)[*:2]].[gGlu].[gGlu].[gGlu].[Sar].[Sar].[Sar].[Sar].[Sar].[Sar].[Sar].[Sar].[Sar].[Sar].[Sar].[Sar].[O=C(CN1CCN(CCN[*:1])CC1)[*:2]].Y.F.[meL].[Nle].[Dab].P.R.G.[am]}$$$$V2.0
SMILES: CCCC[C@H](NC(=O)[C@H](CC(C)C)N(C)C(=O)[C@H](Cc1ccccc1)NC(=O)[C@H](Cc1ccc(O)cc1)NC(=O)CN1CCN(CCNC(=O)CN(C)C(=O)CN(C)C(=O)CN(C)C(=O)CN(C)C(=O)CN(C)C(=O)CN(C)C(=O)CN(C)C(=O)CN(C)C(=O)CN(C)C(=O)CN(C)C(=O)CN(C)C(=O)CN(C)C(=O)CC[C@H](NC(=O)CC[C@H](NC(=O)CC[C@H](NC(=O)CCCCCCCCCCCCCCCCCCC(=O)O)C(=O)O)C(=O)O)C(=O)O)CC1)C(=O)N[C@@H](CCN)C(=O)N1CCC[C@H]1C(=O)N[C@@H](CCCNC(=N)N)C(=O)NCC(N)=O
B4: C18DA-gGlu3-Sar15-AEPipAc-Tyr-Phe-NMeLeu-Nle-Arg-Pro-Arg-Gly-NH2 (peptide)
peptide: EEEXXXXXXXXXXXXXXXXYFLXRPRG
HELM: PEPTIDE1{[O=C(O)CCCCCCCCCCCCCCCCC(=O)[*:2]].[gGlu].[gGlu].[gGlu].[Sar].[Sar].[Sar].[Sar].[Sar].[Sar].[Sar].[Sar].[Sar].[Sar].[Sar].[Sar].[Sar].[Sar].[Sar].[O=C(CN1CCN(CCN[*:1])CC1)[*:2]].Y.F.[meL].[Nle].R.P.R.G.[am]}$$$$V2.0
SMILES: CCCC[C@H](NC(=O)[C@H](CC(C)C)N(C)C(=O)[C@H](Cc1ccccc1)NC(=O)[C@H](Cc1ccc(O)cc1)NC(=O)CN1CCN(CCNC(=O)CN(C)C(=O)CN(C)C(=O)CN(C)C(=O)CN(C)C(=O)CN(C)C(=O)CN(C)C(=O)CN(C)C(=O)CN(C)C(=O)CN(C)C(=O)CN(C)C(=O)CN(C)C(=O)CN(C)C(=O)CN(C)C(=O)CN(C)C(=O)CN(C)C(=O)CC[C@H](NC(=O)CC[C@H](NC(=O)CC[C@H](NC(=O)CCCCCCCCCCCCCCCCC(=O)O)C(=O)O)C(=O)O)C(=O)O)CC1)C(=O)N[C@@H](CCCNC(=N)N)C(=O)N1CCC[C@H]1C(=O)N[C@@H](CCCNC(=N)N)C(=O)NCC(N)=O
B5: C20DA-gGlu3-Sar12-AEPipAc-Tyr-Phe-NMeLeu-Nle-Arg-Pro-Arg-Gly-NH2 (peptide)
peptide: EEEXXXXXXXXXXXXXYFLXRPRG
HELM: PEPTIDE1{[O=C(O)CCCCCCCCCCCCCCCCCCC(=O)[*:2]].[gGlu].[gGlu].[gGlu].[Sar].[Sar].[Sar].[Sar].[Sar].[Sar].[Sar].[Sar].[Sar].[Sar].[Sar].[Sar].[O=C(CN1CCN(CCN[*:1])CC1)[*:2]].Y.F.[meL].[Nle].R.P.R.G.[am]}$$$$V2.0
SMILES: CCCC[C@H](NC(=O)[C@H](CC(C)C)N(C)C(=O)[C@H](Cc1ccccc1)NC(=O)[C@H](Cc1ccc(O)cc1)NC(=O)CN1CCN(CCNC(=O)CN(C)C(=O)CN(C)C(=O)CN(C)C(=O)CN(C)C(=O)CN(C)C(=O)CN(C)C(=O)CN(C)C(=O)CN(C)C(=O)CN(C)C(=O)CN(C)C(=O)CN(C)C(=O)CN(C)C(=O)CC[C@H](NC(=O)CC[C@H](NC(=O)CC[C@H](NC(=O)CCCCCCCCCCCCCCCCCCC(=O)O)C(=O)O)C(=O)O)C(=O)O)CC1)C(=O)N[C@@H](CCCNC(=N)N)C(=O)N1CCC[C@H]1C(=O)N[C@@H](CCCNC(=N)N)C(=O)NCC(N)=O
B6: C20DA-gGlu3-Sar15-AEPipAc-Tyr-Phe-NMeLeu-Nle-Dbu-NMeAla-Arg-Gly-NH2 (peptide)
peptide: EEEXXXXXXXXXXXXXXXXYFLXXARG
HELM: PEPTIDE1{[O=C(O)CCCCCCCCCCCCCCCCCCC(=O)[*:2]].[gGlu].[gGlu].[gGlu].[Sar].[Sar].[Sar].[Sar].[Sar].[Sar].[Sar].[Sar].[Sar].[Sar].[Sar].[Sar].[Sar].[Sar].[Sar].[O=C(CN1CCN(CCN[*:1])CC1)[*:2]].Y.F.[meL].[Nle].[Dab].[meA].R.G.[am]}$$$$V2.0
SMILES: CCCC[C@H](NC(=O)[C@H](CC(C)C)N(C)C(=O)[C@H](Cc1ccccc1)NC(=O)[C@H](Cc1ccc(O)cc1)NC(=O)CN1CCN(CCNC(=O)CN(C)C(=O)CN(C)C(=O)CN(C)C(=O)CN(C)C(=O)CN(C)C(=O)CN(C)C(=O)CN(C)C(=O)CN(C)C(=O)CN(C)C(=O)CN(C)C(=O)CN(C)C(=O)CN(C)C(=O)CN(C)C(=O)CN(C)C(=O)CN(C)C(=O)CC[C@H](NC(=O)CC[C@H](NC(=O)CC[C@H](NC(=O)CCCCCCCCCCCCCCCCCCC(=O)O)C(=O)O)C(=O)O)C(=O)O)CC1)C(=O)N[C@@H](CCN)C(=O)N(C)[C@@H](C)C(=O)N[C@@H](CCCNC(=N)N)C(=O)NCC(N)=O
B7: C20DA-gGlu3-Sar15-AEPipAc-Tyr-Phe-NMeLeu-Nle-Arg-NMeAla-Arg-Gly-NH2 (peptide)
peptide: EEEXXXXXXXXXXXXXXXXYFLXRARG
HELM: PEPTIDE1{[O=C(O)CCCCCCCCCCCCCCCCCCC(=O)[*:2]].[gGlu].[gGlu].[gGlu].[Sar].[Sar].[Sar].[Sar].[Sar].[Sar].[Sar].[Sar].[Sar].[Sar].[Sar].[Sar].[Sar].[Sar].[Sar].[O=C(CN1CCN(CCN[*:1])CC1)[*:2]].Y.F.[meL].[Nle].R.[meA].R.G.[am]}$$$$V2.0
SMILES: CCCC[C@H](NC(=O)[C@H](CC(C)C)N(C)C(=O)[C@H](Cc1ccccc1)NC(=O)[C@H](Cc1ccc(O)cc1)NC(=O)CN1CCN(CCNC(=O)CN(C)C(=O)CN(C)C(=O)CN(C)C(=O)CN(C)C(=O)CN(C)C(=O)CN(C)C(=O)CN(C)C(=O)CN(C)C(=O)CN(C)C(=O)CN(C)C(=O)CN(C)C(=O)CN(C)C(=O)CN(C)C(=O)CN(C)C(=O)CN(C)C(=O)CC[C@H](NC(=O)CC[C@H](NC(=O)CC[C@H](NC(=O)CCCCCCCCCCCCCCCCCCC(=O)O)C(=O)O)C(=O)O)C(=O)O)CC1)C(=O)N[C@@H](CCCNC(=N)N)C(=O)N(C)[C@@H](C)C(=O)N[C@@H](CCCNC(=N)N)C(=O)NCC(N)=O
B8: C20DA-gGlu3-Sar15-AEPipAc-Tyr-Phe-NMeLeu-Nle-Arg-Pro-Arg-Gly-NH2 (peptide)
peptide: EEEXXXXXXXXXXXXXXXXYFLXRPRG
HELM: PEPTIDE1{[O=C(O)CCCCCCCCCCCCCCCCCCC(=O)[*:2]].[gGlu].[gGlu].[gGlu].[Sar].[Sar].[Sar].[Sar].[Sar].[Sar].[Sar].[Sar].[Sar].[Sar].[Sar].[Sar].[Sar].[Sar].[Sar].[O=C(CN1CCN(CCN[*:1])CC1)[*:2]].Y.F.[meL].[Nle].R.P.R.G.[am]}$$$$V2.0
SMILES: CCCC[C@H](NC(=O)[C@H](CC(C)C)N(C)C(=O)[C@H](Cc1ccccc1)NC(=O)[C@H](Cc1ccc(O)cc1)NC(=O)CN1CCN(CCNC(=O)CN(C)C(=O)CN(C)C(=O)CN(C)C(=O)CN(C)C(=O)CN(C)C(=O)CN(C)C(=O)CN(C)C(=O)CN(C)C(=O)CN(C)C(=O)CN(C)C(=O)CN(C)C(=O)CN(C)C(=O)CN(C)C(=O)CN(C)C(=O)CN(C)C(=O)CC[C@H](NC(=O)CC[C@H](NC(=O)CC[C@H](NC(=O)CCCCCCCCCCCCCCCCCCC(=O)O)C(=O)O)C(=O)O)C(=O)O)CC1)C(=O)N[C@@H](CCCNC(=N)N)C(=O)N1CCC[C@H]1C(=O)N[C@@H](CCCNC(=N)N)C(=O)NCC(N)=O

This assay addresses T1, human neuromedin U receptor 1. The experiment in a line: cell-based or functional assay.
Molecule B1 had an EC50 (hNMUR1) buffer of 130 nM.
As for B2, the figure is 660 nM.
Molecule B3 came in with an EC50 (hNMUR1) buffer of 1000 nM.
As for B4, the figure is 250 nM.
With B5 the figure was 120 nM; with B6, more than 1000 nM.
As for B7, the figure is 720 nM; as for B8, 220 nM.
